Three proteins from paper PMC10319725, “A mechanical-coupling mechanism in OSCA/TMEM63 channel mechanosensitivity” (Nature Communications, 2023) can be followed below.

Data set [1] concerns the molecule itself. The data set is described as follows: cryo-EM structure; purified AtOSCA3.1 in a detergent environment; two conformations (contracted, extended) in one data set.
Data set [2] deals with the molecule itself. The data set is described as follows: SEC; fluorescence-detection SEC (FSEC) of detergent-solubilised Expi293F cells (1% LMNG, 0.1% CHS; also DDM or GDN), Superose 6 increase 5/150 in TBS (20 mM Tris pH 8.0, 150 mM NaCl) with 10 uM LMNG, GFP fluorescence detected. For orientation: SEC sorts molecules by how far they enter the pores of the column.
Data set [3] concerns the molecule itself. As to the kind of experiment: cryo-EM structure; purified AtOSCA1.1 reconstituted in MSPE3D1 lecithin nanodiscs, TBS.

B1: AtOSCA3.1 (natural protein, Arabidopsis thaliana)
chain: MEFGSFLVSLGTSFVIFVILMLLFTWLSRKSGNAPIYYPNRILKGLEPWEGTSLTRNPFAWMREALTSSEQDVVNLSGVDTAVHFVFLSTVLGIFACSSLLLLPTLLPLAATDNNIKNTKNATDTTSKGTFSQLDNLSMANITKKSSRLWAFLGAVYWISLVTYFFLWKAYKHVSSLRAQALMSADVKPEQFAILVRDMPAPPDGQTQKEFIDSYFREIYPETFYRSLVATENSKVNKIWEKLEGYKKKLARAEAILAATNNRPTNKTGFCGLVGKQVDSIEYYTELINESVAKLETEQKAVLAEKQQTAAVVFFTTRVAAASAAQSLHCQMVDKWTVTEAPEPRQLLWQNLNIKLFSRIIRQYFIYFFVAVTILFYMIPIAFVSAITTLKNLQRIIPFIKPVVEITAIRTVLESFLPQIALIVFLAMLPKLLLFLSKAEGIPSQSHAIRAASGKYFYFSVFNVFIGVTLAGTLFNTVKDIAKNPKLDMIINLLATSLPKSATFFLTYVALKFFIGYGLELSRIIPLIIFHLKKKYLCKTEAEVKEAWYPGDLSYATRVPGDMLILTITFCYSVIAPLILIFGITYFGLGWLVLRNQALKVYVPSYESYGRMWPHIHQRILAALFLFQVVMFGYLGAKTFFYTALVIPLIITSLIFGYVCRQKFYGGFEHTALEVACRELKQSPDLEEIFRAYIPHSLSSHKPEEHEFKGAMSRYQDFNAIAGV
notes: AtOSCA3.1 from Arabidopsis thaliana, UniprotKB Q9C8G5; also called contracted state of AtOSCA3.1; extended state of AtOSCA3.1; source: Expi293F infected by baculovirus, purified (DDM, TALON)
On to B1, for which the “stoichiometry N” value in data set [1] was found to be 2.

B2: AtOSCA1.1-CGFP (natural protein, Arabidopsis thaliana)
chain: MATLKDIGVSAGINILTAFIFFIIFAFLRLQPFNDRVYFSKWYLRGLRSSPASGGGFAGRFVNLELRSYLKFLHWMPEALKMPERELIDHAGLDSVVYLRIYWLGLKIFAPIAMLAWAVLVPVNWTNNELELAKHFKNVTSSDIDKLTISNIPEGSNRFWAHIIMAYAFTIWTCYMLMKEYETVANMRLQFLASEGRRPDQFTVLVRNVPPDPDETVSELVEHFFLVNHPDNYLTHQVVCNANKLADLVSKKTKLQNWLDYYQLKYTRNNSQIRPITKLGCLGLCGQKVDAIEHYIAEVDKTSKEIAEERENVVNDQKSVMPASFVSFKTRWAAAVCAQTTQTRNPTEWLTEWAAEPRDIYWPNLAIPYVSLTVRRLVMNVAFFFLTFFFIIPIAFVQSLATIEGIEKVAPFLKVIIEKDFIKSLIQGLLAGIALKLFLIFLPAILMTMSKFEGFTSVSFLERRSASRYYIFNLVNVFLGSVIAGAAFEQLNSFLNQSPNQIPKTIGMAIPMKATFFITYIMVDGWAGVAGEILMLKPLIIYHLKNAFLVKTEKDREEAMNPGSIGFNTGEPQIQLYFLLGLVYAPVTPMLLPFILVFFALAYVVYRHQIINVYNQEYESAAAFWPDVHGRVITALIISQLLLMGLLGTKHAASAAPFLIALPVITIGFHRFCKGRFEPAFVRYPLQEAMMKDTLERAREPNLNLKGYLQDAYIHPVFKGGDNDDDGDMIGKLENEVIIVPTKRQSRRNTPAPSRISGESSPSLAVINGKEV
notes: AtOSCA1.1 from Arabidopsis thaliana, UniprotKB Q9XEA1; cDNA cloned into a C-terminally GFP-tagged BacMam vector; His8 and FLAG lie after GFP in the vector; also called Arabidopsis thaliana OSCA1.1; source: Expi293F, transfected, solubilised in LMNG-CHS, in cleared lysate; not shown: GFP, C-terminal, kept
Turning to B2, the “stoichiometry N” value in data set [2] was 2.

B3: AtOSCA1.1 in lipid nanodisc (natural protein, Arabidopsis thaliana)
chain: MATLKDIGVSAGINILTAFIFFIIFAFLRLQPFNDRVYFSKWYLRGLRSSPASGGGFAGRFVNLELRSYLKFLHWMPEALKMPERELIDHAGLDSVVYLRIYWLGLKIFAPIAMLAWAVLVPVNWTNNELELAKHFKNVTSSDIDKLTISNIPEGSNRFWAHIIMAYAFTIWTCYMLMKEYETVANMRLQFLASEGRRPDQFTVLVRNVPPDPDETVSELVEHFFLVNHPDNYLTHQVVCNANKLADLVSKKTKLQNWLDYYQLKYTRNNSQIRPITKLGCLGLCGQKVDAIEHYIAEVDKTSKEIAEERENVVNDQKSVMPASFVSFKTRWAAAVCAQTTQTRNPTEWLTEWAAEPRDIYWPNLAIPYVSLTVRRLVMNVAFFFLTFFFIIPIAFVQSLATIEGIEKVAPFLKVIIEKDFIKSLIQGLLAGIALKLFLIFLPAILMTMSKFEGFTSVSFLERRSASRYYIFNLVNVFLGSVIAGAAFEQLNSFLNQSPNQIPKTIGMAIPMKATFFITYIMVDGWAGVAGEILMLKPLIIYHLKNAFLVKTEKDREEAMNPGSIGFNTGEPQIQLYFLLGLVYAPVTPMLLPFILVFFALAYVVYRHQIINVYNQEYESAAAFWPDVHGRVITALIISQLLLMGLLGTKHAASAAPFLIALPVITIGFHRFCKGRFEPAFVRYPLQEAMMKDTLERAREPNLNLKGYLQDAYIHPVFKGGDNDDDGDMIGKLENEVIIVPTKRQSRRNTPAPSRISGESSPSLAVINGKEV
notes: AtOSCA1.1 from Arabidopsis thaliana, UniprotKB Q9XEA1; GFP removed by HRV3C protease; His8 and FLAG lie after GFP in the vector and were probably removed with it; Embedded in MSPE3D1 lecithin nanodiscs; also called extended state of AtOSCA1.1; not shown: GFP, C-terminal, cleaved
As for B3, the “stoichiometry N” value in data set [3] was found to be 2.

As a reminder, the stoichiometry N is a count of units in the complex or per binding partner.
